Experiment [1] has as its target TRAILR1-Fas chimeric receptor (human) (UniProt O00220). The experiment is described as follows: radioligand binding; competition on cells: 4x10^5 murine fibroblasts expressing the (chimeric) TRAIL receptor in PFA (PBS, 2% FCS, 0.002% sodium azide), 83 ng/ml 125I-TRAIL with or without unlabeled recombinant human TRAIL (83-5300 ng/ml), 4 hours on ice; cells spun through phthalate oil; 68 kDa used for TRAIL.

Experiment [2] concerns the target TRAILR2-Fas chimeric receptor (human) (UniProt O14763). Described as above.
Experiment [3] has as its target TNFR1-TRAILR2-Fas chimeric receptor (TM2) (human) (UniProt P19438). The experiment is described as follows: radioligand binding; equilibrium (saturation) binding on cells: 2x10^5 murine fibroblasts expressing the receptor in PFA (PBS, 2% FCS, 0.002% sodium azide), 125I-TNF 0.25-12.5 ng/ml, 2 h on ice; non-specific binding with 200-fold excess of unlabeled protein; cells spun through phthalate oil; one site binding hyperbola; 51 kDa used for TNF; apparent.

The target in experiment [4] is TNFR1-TRAILR1-Fas chimeric receptor (TM1) (human) (UniProt P19438). The experiment is described as above.

In general, IC50 refers to the concentration at which inhibition is half-maximal. As to “Flag-tagged recombinant human TRAIL (sTRAIL), unlabeled (from UniProt P50591 95-281) (ligand)”, the IC50 stood at 0.0168 µM in experiment [1] and 0.0055 µM in experiment [2].
As to “125I-labeled recombinant human TNF (from UniProt P01375 77-233) (ligand)”, the Kd in experiment [3] was 0.071 µM; in experiment [4], 0.225 µM.
